Assay results: IntAct's records for PubMed 28515320

B1: Nectin-2 (Homo sapiens), Q92692 (parent)
chain: MARAAALLPSRSPPTPLLWPLLLLLLLETGAQDVRVQVLPEVRGQLGGTVELPCHLLPPVPGLYISLVTWQRPDAPANHQNVAAFHPKMGPSFPSPKPGSERLSFVSAKQSTGQDTEAELQDATLALHGLTVEDEGNYTCEFATFPKGSVRGMTWLRVIAKPKNQAEAQKVTFSQDPTTVALCISKEGRPPARISWLSSLDWEAKETQVSGTLAGTVTVTSRFTLVPSGRADGVTVTCKVEHESFEEPALIPVTLSVRYPPEVSISGYDDNWYLGRTDATLSCDVRSNPEPTGYDWSTTSGTFPTSAVAQGSQLVIHAVDSLFNTTFVCTVTNAVGMGRAEQVIFVRETPNTAGAGATGGIIGGIIAAIIATAVAATGILICRQQRKEQTLQGAEEDEDLEGPPSYKPPTPKAKLEAQEMPSQLFTLGASEHSPLKTPYFDAGASCTEQEMPRYHELPTLEERSGPLHPGATSLGSPIPVPPGPPAVEDVSLDLEDEEGEEEEEYLDKINPIYDALSYSSPSDSYQGKGFVMSRAMYV
partner: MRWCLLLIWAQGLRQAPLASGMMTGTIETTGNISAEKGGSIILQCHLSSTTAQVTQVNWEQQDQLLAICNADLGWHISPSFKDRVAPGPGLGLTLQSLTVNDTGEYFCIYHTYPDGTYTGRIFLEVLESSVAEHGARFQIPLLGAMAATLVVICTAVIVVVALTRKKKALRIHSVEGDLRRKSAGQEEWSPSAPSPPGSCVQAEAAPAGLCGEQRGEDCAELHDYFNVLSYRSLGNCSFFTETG

Variants of: B1
Conditions: with tigit_human TIGIT

Variant	effect of a mutation on the interaction
A83V	decreasing interaction strength
A83R	decreasing interaction strength
E101A	with no effect
E141A	with no effect
H86A	decreasing interaction strength
L67A	decreasing interaction strength
L67Q	decreasing interaction strength
F145A	disrupting interaction strength
M89A	decreasing interaction strength
G90A	decreasing interaction strength
